From patent publication US20120041175A1 (ROCKEFELLER UNIVERISTY, published 2012)

B1: Beclin 1-EGFP (fusion of mouse Beclin 1 and EGFP at the C-terminus) (other)
chain: MEGSKASSSTMQVSFVCQRCSQPLKLDTSFKILDRVTIQELTAPLLTTAQAKPGETQEEEANSGEEPFIETRQDGVSRRFIPPARMMSTESANSFTLIGEASDGGTMENLSRRLKVTGDLFDIMSGQTDVDHPLCEECTDTLLDQLDTQLNVTENECQNYKRCLEILEQMNEDDSEQLQRELKELALEEERLIQELEDVEKNRKVVAENLEKVQAEAERLDQEEAQYQREYSEFKRQQLELDDELKSVENQVRYAQIQLDKLKKTNVFNATFHIWHSGQFGTINNFRLGRLPSVPVEWNEINAAWGQTVLLLHALANKMGLKFQRYRLVPYGNHSYLESLTDKSKELPLYCSGGLRFFWDNKFDHAMVAFLDCVQQFKEEVEKGETRFCLPYRMDVEKGKIEDTGGSGGSYSIKTQFNSEEQWTKALKFMLTNLKWGLAWVSSQFYNK
notes: Expressed from a BAC transgene in beclin 1-/-; also called Beclin 1-GFP; not shown: EGFP inserted at the C-terminus in place of the stop codon
B2: Bif1 (endogenous, mouse tissue) (other, UniProt Q9JK48 1-365, looked up)
chain: MNIMDFNVKKLAADAGTFLSRAVQFTEEKLGQAEKTELDAHLENLLSKAECTKIWTEKIMKQTEVLLQPNPNARIEEFVYEKLDRKAPSRINNPELLGQYMIDAGTEFGPGTAYGNALIKCGETQKRIGTADRELIQTSALNFLTPLRNFIEGDYKTIAKERKLLQNKRLDLDAAKTRLKKAKAAETKSSSEQELRITQSEFDRQAEITRLLLEGISSTHAHHLRCLNDFVEAQMTYYAQCYQYMLDLQKQLGSFPSNYLSNNNQTSGTPVPYALSNAIGPSAQASTGSLVITCPSNLNDLKESSNNRKARVLYDYDAANSTELSLLADEVITVFSVVGMDSDWLMGERGNQKGKVPITYLELLN

Legend:
[1] = target: nPIST (endogenous, mouse tissue) (mouse, UniProt Q8BH60 2-463); test: anti-GFP affinity isolation of Beclin 1-EGFP from mouse tissues, mass spectrometry
Protocol: (§1) Rubicon contains an N-terminal RUN (for RPIP8, UNC-14 and NESCA) domain, a C-terminal cysteine-rich domain, and a CCD domain in the central of the protein sequence. (D and E) HEK 293T cells were transfected with either N-terminal FLAG-tagged […] or C-terminal EGFP-tagged (E) ATG14L or Rubicon. Immunoprecipitation was performed with anti-FLAG (D) or anti-GFP antibody (E). The endogenous Beclin 1 co-immunoprecipitated were detected by Western blot analysis using anti-Beclin 1 antibody. WCL represents whole cell lysate, and IP represents immunoprecipitated.
(§2) Affinity purification of Beclin 1 interacting proteins and mass spectrometric identification of these proteins were carried out as described in Wang et al. (2006), with slight modification. In brief, tissue extracts were obtained from both beclin 1^{+/-} and beclin 1^{-/-}; beclin 1-GFP/+ mice at 4 month of age by homogenizing 2 brains or 1 liver with a motor-driven homogenizer (speed 2.5, 12 strokes) in 4 ml buffer containing 0.32 M sucrose, 1 mM NaHCO₃, 20 mM HEPEs/pH 7.4, 1 mM MgCl₂, 0.25 mM CaCl₂, EDTA-free protease inhibitor cocktail, 200 μg/mL PMSF, pepstatin 4 μg/mL, and DNase I. The tissue extracts were centrifuged at 1,400 g for 10 minutes and the pellets were homogenized again in 4 ml buffer for 8 strokes and centrifuged again. Supernatants from the two homogenization steps were pooled, centrifuged at 750 g for 10 minutes. […]

[2] = target: B1; test: as above
Protocol: as §1, §2

Binder	binding result [1]	binding result [2]
B1	no binding	–
B2	–	no binding
